This test concerns the target α-actin, endogenous (T. vaginalis) (T. vaginalis (endogenous in TH17 trophozoites)). Briefly: co-sedimentation.

The values that follow come from article doi:10.1101/2022.06.09.495492.

“TvFACPα (F-actin capping protein subunit α homolog), endogenous (natural protein)” showed a percent co-sedimented with F-actin (F-actin fraction) of 25%.
